These are literature values, as cited in article PMC3022542.

Read-outs that look alike come from different tables or passages of the source.

Data set [1] addresses importin α5 (Homo sapiens) (UniProt P52294). Kind of data set: isothermal titration calorimetry.
Data set [2] has the same target. Description: isothermal titration calorimetry. The source holds these as a separate data set.

Chain of UniProt P52294 (P52294 whole entry): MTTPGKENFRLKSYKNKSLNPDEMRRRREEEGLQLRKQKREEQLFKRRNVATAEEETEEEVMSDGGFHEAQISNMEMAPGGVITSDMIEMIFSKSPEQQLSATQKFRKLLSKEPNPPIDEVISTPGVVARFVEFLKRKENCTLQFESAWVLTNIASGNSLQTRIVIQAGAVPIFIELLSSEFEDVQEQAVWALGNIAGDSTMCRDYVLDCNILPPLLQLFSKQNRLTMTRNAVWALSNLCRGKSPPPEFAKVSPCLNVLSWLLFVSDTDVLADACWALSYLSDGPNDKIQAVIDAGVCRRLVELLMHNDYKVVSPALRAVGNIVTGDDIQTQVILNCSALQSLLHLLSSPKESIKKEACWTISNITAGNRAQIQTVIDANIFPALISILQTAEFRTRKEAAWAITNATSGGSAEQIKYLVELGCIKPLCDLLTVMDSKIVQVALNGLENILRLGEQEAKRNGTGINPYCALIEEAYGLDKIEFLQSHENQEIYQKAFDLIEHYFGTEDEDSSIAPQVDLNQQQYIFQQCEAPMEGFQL

Regarding “EBNA-1 NLS peptide NLS (from UniProt P03211)”, the Kd in data set [1] was 60 µM; in data set [2], 3 µM.
